Laboratory results: PMC6104945 (2018)

B1: NHBA_(312-427) (Neisserial heparin binding antigen, peptide 20, residues M312-D427) [Neisseria meningitidis (strain 2996)] / Fab 5H2 (Fab derived from the vaccine-elicited human monoclonal antibody 5H2) [human] (parent complex)
chain 1: MLAGTAVYNGEVLHFHTENGRPYPTRGRFAAKVDFGSKSVDGIIDSGDDLHMGTQKFKAAIDGNGFKGTWTENGGGDVSGRFYGPAGEEVAGKYSYRPTDAEKGGFGVFAGKKEQD
chain 2: not shown
chain 3: EIVMTQTPSSLSASVGDRVTITCRASQSISNYLNWYQQKPGTAPKLLTYAASSLGSGVPSRFSGSGSGTDLTLTISSLRPEDFATYYCQQSYGSPTFGQGTKLEIRRTVAAPSVFIFPPSDEQLKSGTASVVCLLNNFYPREAKVQWKVDNALQSGNSQESVTEQDSKDSTYSLSSTLTLSKADYEKHKVYACEVTHQGLSSPVTKSFNRGEC

Variants of: B1
Assay: SPR; Fab 5H2 captured on sensor chip, NHBA312-427 mutant injected; response read at end of injection (~48 s); read off a plot

Variant	response [RU]
chain 1 E11A, chain 1 E114A	~51
chain 1 K56A	~58
chain 1 R28A	~2
chain 1 R28G	~30
chain 1 R28G, chain 1 K56A	~5
chain 1 R28A, chain 1 K56A	~3
chain 1 D49A, chain 1 T54A	~42
